Experimental data reported in the supplement of paper PMC10567573.
± gives the standard deviation.

Assay: protein stability index of a GFP-peptide fusion (GPS, HEK-293T) (PSI 1-6); higher = more stable
[1] = treatment: DMSO, c terminus: a fixed tail appended
[2] = treatment: MLN4924 1 uM, 8 h, c terminus: a fixed tail appended
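Also: 24-mer peptide tiles fused after GFP, lentivirally expressed, FACS-sorted into six equal bins by GFP/DsRed ratio, decoded by Illumina sequencing, PSI is the read-weighted mean bin number.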

Sequence	protein stability index [1]	protein stability index [2]	protein stability index (treatment: DMSO, c terminus: native)	protein stability index (treatment: MLN4924 1 uM, 8 h, c terminus: native)
IDCGKAFSQKSCLVAHQRYHTGKT [ZNF649]	2.83 ± 0.24	2.87 ± 0.16	–	–
IDKKPVSEKTDESDTIPYLKKFLY [MIA2]	2.83 ± 0.57	2.95 ± 0.4	–	–
IDSYDPSTGEVYCRVPNSGKDEIE [ALDH8A1]	4.97 ± 0.2	4.92 ± 0.2	–	–
IEDAAEPKEPAPPNGSAAEPPTEA [PALM]	5.54 ± 0.24	5.47 ± 0.22	–	–
IEDFQQKILLTKSENARLVLQIDN [KRT36]	2.79 ± 0.25	2.8 ± 0.23	–	–
IEEDMNNSIAHYRQVNIRTANCTT [KCNA1]	3.71 ± 0.55	3.57 ± 0.48	–	–
IEENITSAAPSNDQDGEYCPEVKL [SRPK2]	5.5 ± 0.17	5.49 ± 0.28	–	–
IESKIPLNMEEPPVEEPEPKPDRL [SLC19A2]	5.36 ± 0.24	5.57 ± 0.12	–	–
IETSALDSTNVEAAFQTILTEIYR [RAB11A]	2.35 ± 0.074	2.44 ± 0.44	–	–
IFEDRIRGIDIIKWMERYLRDKTV [TRAF3IP2]	2.02 ± 0.56	1.99 ± 0.23	–	–
IFQEQQKKWQQYRSVRRERLKEMK [FAM9B]	3.22 ± 0.29	3.22 ± 0.39	–	–
IGALTYFAQADALKGTLVSTLKEV [ACSBG2]	2.21 ± 0.41	2.25 ± 0.56	–	–
IGYVHIYLKGQREKSEKINAMLKG [GOSR1]	2.21 ± 0.14	2.67 ± 0.17	–	–
IICEAHKVLGNRWAEIAKMLPGRT [MYBL2]	2.25 ± 0.099	2.2 ± 0.16	–	–
IIDYLEQTFLDERTPRLMPDKESM [GDAP1]	2.6 ± 0.27	2.82 ± 0.28	–	–
IKLREYEAALNSKDAALATALGDK [LMNB1]	4.076 ± 0.039	4.38 ± 0.15	–	–
IKSVLWQTLQALNFCHIHNCIHRD [CDKL4]	3.15 ± 0.99	2.99 ± 0.72	–	–
ILIQHQKAKHFKCHICHKKLYTGP [ZNF207]	2.44 ± 0.12	1.88 ± 0.38	–	–
ILVYDIANRWSFEGMDRWIKKIEE [RAB40A]	2.43 ± 0.38	2.34 ± 0.16	–	–
INVGGIKYSLPWTTLDEFPLTRLG [KCNG1]	2.17 ± 0.6	2.06 ± 0.13	–	–
IPERLSIFCRDTQTVFQKKNLQQT [IQUB]	2.87 ± 0.19	2.98 ± 0.51	–	–
IPPPLSSVYAWGGGLGTPLRLPML [NEK8]	2.32 ± 0.087	2.32 ± 0.034	–	–

Sequence	protein stability index [1]	protein stability index [2]	protein stability index (treatment: DMSO, c terminus: native)	protein stability index (treatment: MLN4924 1 uM, 8 h, c terminus: native)
IQEAQSAWKDDFALNSMLRRRFRE [YJU2B]	3.53 ± 0.14	3.69 ± 0.25	–	–
IQFATPNDFCSFYNILKTCRGHTL [CARM1]	2.47 ± 0.41	2.24 ± 0.22	–	–
IQQGINAVNQEAMNNAQRIEKWVI [ACSBG2]	2.89 ± 0.44	2.94 ± 0.51	–	–
IQVVLNGMESYQEVTVQRNCCLTL [ZER1]	3.21 ± 0.47	3.01 ± 0.73	–	–
IRCVYILDPWFAGSSNVGINRWRF [CRY1]	3.13 ± 0.51	3.06 ± 0.51	–	–
IRDFEARKCPVHGKTMELFCQTDQ [TRIM29]	3.54 ± 0.28	3.76 ± 0.28	–	–
IRIKLDPCHPTVKNWRNFASKWGM [EDARADD]	3.28 ± 0.61	2.58 ± 0.76	–	–
IRPDPRSRVTDPVGDIVSFMHSFE [FAF2]	3.06 ± 0.42	3.09 ± 0.33	–	–
IRVKIADLGNACWVHKHFTEDIQT [SRPK2]	2.43 ± 0.5	2.26 ± 0.57	–	–
ISCVERGWSTPPKCRSTISAEKCG [CFHR2]	2.88 ± 0.14	3.09 ± 0.32	–	–
ISGGFDRTVAIWDVAEGYRKLSLK [WDR88]	3.09 ± 0.49	3.02 ± 0.36	–	–
ISLHPFNPWNWGKLAEAYLNLGPA [C8orf76]	2.23 ± 1.1	2.18 ± 0.77	–	–
IVATLLILDICEDNVPDPKDVKER [TMEM175]	2.46 ± 0.67	2.49 ± 0.37	–	–
IVDKCTELLREGRASATTTITTAA [ZBTB22]	3.78 ± 0.1	3.74 ± 0.18	–	–
IVLNKINQILMEKYLKLQDTCRTQ [INTS3]	3.59 ± 0.83	3.24 ± 0.61	–	–
IWAFLDVSFVERILKSQKERQCAL [FBXO39]	2.41 ± 0.53	2.24 ± 0.17	–	–
IWNILDLVVILLSIVAVGFHIFRT [PKD2L1]	3.15 ± 0.64	2.45 ± 0.84	–	–
IYNGGVEAVSTLLGAVAVFAVGYI [SLC19A2]	2.37 ± 0.26	–	–	–
IYSTDLHKLDLNTREWTQLKPNNL [KLHDC10]	2.65 ± 0.18	2.81 ± 0.15	–	–
KAETKTKKAAESLRRSVEKYNSAR [FCHO1]	4.64 ± 0.22	4.72 ± 0.075	–	–
KCRSTISAEKCGPPPPIDNGDITS [CFHR2]	4.52 ± 0.071	4.45 ± 0.29	–	–
KCYLNGVKVPGIVRLRTLLCKVLG [CLCN6]	2.93 ± 0.43	2.77 ± 0.36	–	–

Sequence	protein stability index [1]	protein stability index [2]	protein stability index (treatment: DMSO, c terminus: native)	protein stability index (treatment: MLN4924 1 uM, 8 h, c terminus: native)
KEETNHSEMAEDLCKIGSERSLVL [IKZF1]	4.69 ± 0.31	4.86 ± 0.28	–	–
KFLEICKLSGFMSKLVPAIQNAHK [TPRG1]	2.27 ± 0.74	2.81 ± 1	–	–
KGLLKKGACYGDDACFVARHRSAD [PPTC7]	4.16 ± 0.56	4.05 ± 0.25	–	–
KHAAFVTPDQKYSMDNTPHTPTPF [MYBL2]	3.84 ± 0.25	3.84 ± 0.35	–	–
KHIPYREHKSLTGTARYMSINTHL [CSNK1G3]	2.41 ± 0.088	2.51 ± 0.32	–	–
KILVGNRLHLAFKRQVPTEQAQAY [RAB40B]	2.07 ± 0.16	2.5 ± 0.23	–	–
KKAFVWARNIGFKVNSKKMLGKYN [ACSBG2]	2.5 ± 0.46	2.35 ± 0.38	–	–
KKALSGLSSRWKNWWIRGILTLTM [CDS1]	2.14 ± 0.091	2.22 ± 0.19	–	–
KKIYAMGGGSYGKLFESVECYDPR [GAN]	2.94 ± 0.24	2.99 ± 0.17	–	–
KKNSNMTYEKLSRAMRYYYKREIL [ELF3]	2.33 ± 0.25	2.27 ± 0.47	–	–
KKQTKVEFPEARIFEETLNILIYE [KCTD13]	2.16 ± 0.2	2.44 ± 0.5	–	–
KKSGEKEQHISKCKKAFREGSRKS [KMT2E]	4.23 ± 0.78	4.61 ± 0.27	–	–
KKSSRNIFSIVFVFFVCFVPYHIA [P2RY14]	3.31 ± 1	3.53 ± 0.15	–	–
KLGALLSRCRKLVEYFQQSAVAMY [ZBED1]	3.12 ± 0.31	3.1 ± 0.21	–	–
KLHYPELYVLKGGYKEFFMKCQSY [CDC25A]	2.42 ± 0.5	2.04 ± 0.33	–	–
KLTQRLEEMTQRMEALENRLRYR [MATN2]	–	–	2.7 ± 0.51	2.79 ± 0.34
KLYGQRERVWALAQEKAADVQARL [FCHSD1]	3.51 ± 0.32	3.49 ± 0.3	–	–
KMLRKEAAARCVVLDCRPYLAFAA [DUSP5]	2.77 ± 0.63	2.51 ± 0.44	–	–
KNGLSFIETSALDSTNVEAAFQTI [RAB11A]	3.31 ± 0.27	3.56 ± 0.43	–	–
KPDYEYLRTLFTDLFEKKGYTFDY [CSNK1G1]	2.4 ± 0.47	2.31 ± 0.15	–	–
KPKIEDVGSDEEDDSGKDKKKKTK [HSP90AB1]	5.54 ± 0.24	5.56 ± 0.12	–	–
